Measured values: US20160287696A1, “PAN POLLEN IMMUNOGENS AND METHODS AND USES FOR IMMUNE RESPONSE MODULATION” (LA JOLLA INSTITUTE FOR ALLERGY AND IMMUNOLOGY, priority 2013, published 2016)

System: cultured PBMCs of the allergic donors
Assay: ELISPOT of IL-5 or IFNg production by cultured PBMCs of TG allergic donors in response to peptide
Type: cell-based, human
Details: for NTGA's containing at least one T cell epitope, Th+ (Col 2): NTGA number given = criterion met, TG allergic donors n=20; for No of PG+ & th+ peptides per NTGA / No of PP & Th+ peptides per NTGA: Table 6; for No of PG+ & th+ peptides per NTGA: PG+ peptides recognized by T cells of grass allergic donors (n=20); for No of PP & Th+ peptides per NTGA: PP peptides recognized by T cells of grass allergic donors (n=20); for # Th+: Table 7, peptides per NTGA recognized by T cells of grass allergic donors (n=20)
Source text: Table 1 indicates for each of the 397 PG+ peptides in which non-grass pollen species a matching peptide with either less than 3, less than 2 or zero mismatches are found. The number of TG grass allergic donors (n=20) with an in vitro T cell response to the TG peptide sequence is also shown.
A set of 93 proteins from Timothy grass (TG) pollen and the assembly of 822 peptides (15 mers) predicted to promiscuously bind HLA class II molecules shown in Table 9 and the immune reactivity in allergic donors have been reported in PCT application WO 2013/119863. […] Immune reactivity was determined by the production of IL-5 or IFNg from cultured PBMCs of the allergic donors in response to stimulation with a peptide and IL-5 and IFNg were measured by ELISPOT as described in Oseroff C et al, 2010.
In short, T cell immune reactivity was determined using PBMCs isolated from study participants and stored in liquid nitrogen until further use. For experimental testing, PBMCs were thawed and expanded in vitro with TG pollen extract (50 μg/mL) or the peptide pool ([…]). The TG extract and peptide pools had each been previously titrated to determine optimal stimulation concentrations.
Cytokine production by cultured PBMCs in response to antigen stimulation was measured by ELISPOT. Cells (1×10^5 cells/well) were plated and incubated with peptide (10 μg/mL), the peptide pool (5 μg/mL), or the TG extract (50 μg/mL). Phytohaemagglutinin (10 μg/mL) and medium alone were used as positive and negative controls, respectively. Samples were considered to produce a cytokine if 100 spot-forming cells (SFCs)/10^6 PBMCs were detected, with P .05 and a stimulation index of 2 or more. Criteria for individual peptides were the same except that a minimum of 20 SFCs were required for a sample to be counted as positive.
Table 3 lists the 397 PG+ peptides and indicates for each non-grass pollen species whether a matching peptide with either less than 3, less than 2 or zero mismatches could be detected. The immune reactivity of the TG peptide was assessed as the number of TG grass allergic donors (n=20) having in vitro T cell response against the TG peptide.

Molecule | NTGA's containing at least one T cell epitope, Th+ (Col 2) | No of PG+ & th+ peptides per NTGA | No of PP & Th+ peptides per NTGA | # Th+
NTGA 11: Phl p wild type sequence, Table 2 (protein, Phleum Pratense) MATSWTLPDHPTLPKGKTVAVIVLDGWGEASADQYNCIHRAETPVMDSLKNGAPEKWTLVKAHGTAVGLPSDDDMGNSEVGHNALGAGRIFAQGAKLVDAALASGKIWEAEGFNYIKESFAEGTLHLIGLLSDGGVHSRLDQVQLLVKGASERGAKRIRLHILTDGRDVLDGSSVGFVETLENDLAQLREKGVDAQVASGGGRMYVTMDRYENDWDVVKRGWDAQVLGEAPYKFKSALEAVKTLRAEPKANDQYLPAFVIVDESGKSVGPIVDGDAVVTFNFRADRMVMLAKALEFADFDKFDRVRVPKIKYAGMLQYDGELKLPNKFLVSPPLIERTSGEYLVKNGVRTFACSETVKFGHVTFFWNGNRSGYFDETKEEYIEIPSDSGITFNEQPKMKALEIAEKTRDAILSGKFDQVRINLPNGDMVGHTGDIEATVVACKAADEAVKIVLDAVEQVGGIYLVTADHGNAEDMVKRNKSGQPALDKSGSIQILTSHTLQPVPVAIGGPGLHPGVKFRSDINTPGLANVAATVMNLHGFQAPDDYETTLIEVAD | 11 | 5 | 1 | 0
NTGA 29: Phl p wild type sequence, Table 2 (protein, Phleum Pratense) MASEKHFKYVILGGGVAAGYAAREFAKQGVQPGELAIISKESVAPYERPALSKGYLFPQNAARLPGFHTCVGSGGEKLLPEWYTEKGIELILSTEIVKADLASKTLTSAAGATFTYETLLIATGSSTIKLTDFGVQGAEANNILYLRDINDADKLVAAMQAKKDGKAVVVGGGYIGLELSAALKLNNFDVTMVYPEPWCMPRLFTAGIAHFYEGYYASKGINIVKGTVASGFDADANGDVAVVKLKDGRVLDANIVIVGVGGRPLTGLFKGQVDEEKGGLKTDTFFETSVAGVYAIGDVASFPMKLYNEPRRVEHVDHARKSAEQAVKAIKAKESGETVAEYDYLPYFYSRSFDIAWQFYGDNVGESVLFGDNDPAAAKAKFGTYWVKDGKVVGVFLEGGSADENQAIAKVARAQPLVAANLGELGKEGLDFAAKI | 29 | 1 | 1 | 0
NTGA 9: Phl p wild type sequence, Table 2 (protein, Phleum Pratense) MAQLQETYACSPATERGRGILLGGDAKTDTIVYCAGRTVFFRRLDAPLDAWTYTEHAYPTTVARISPNGEWVASADVSGCVRVWGRNGDRALKAEFRPISGRVDDLRWSPDGLRIVVSGDGKGKSLVRAFMWDSGSTVGDFDGHSKRVLSCDFKPTRPFRIVTCGEDFLANYYEGPPFKFKHSIRDHSNFVNCIRYSPDGSKFITVSSDKRGLIYDGKTGDKIGELSSEDSHTGSIYAVSWSADSKQVLTVSADKTAKVWDIMEDASGKVNRTLVCTGIGGVDDMLVGCLWQNDHLVTVSLGGTFNVFSASNPDKEPVSFAGHLKTVSSLTYFPQSNPRTMLSTSYDGVIIRWIQGVGYGGRLIRKNNTQIKCFVAAEEELITSGYDNMVFRIPLNGDQCGDAESVDVGGQPNALNIAVQQPEFALITTDSAIVLLHKSTVTSTTKVSYTITSSAVSPDGTEAIVGAQDGKLRIYSISGDTLTEEAVLERHRGAITSIHYSPDVSMFASADANREAVAWDRATREIKLKNMLFHTARINCLAWSPDSRLVATGSIDTCAIIYDVDKPASSRITIKGAHLGGVHGLTFADNDTLVTAGEDACVRVWKLV | 9 | 3 | 1 | 0
NTGA 10: Phl p wild type sequence, Table 2 (protein, Phleum Pratense) MVFSVTKKDTKPFDGQKPGTSGLRKKVTVFQQPHYLANFVQSTFNALPADQVKGATIVVSGDGRYFSKDAVQIITKMAAANGVRRVWVGQDSLLSTPAVSAIIRERIAADGSKATGAFILTASHNPGGPTEDFGIKYNMGNGGPAPESVTDKIFSNTTTITEYLIAEDLPDVDISALGVTTFTGPEGPFDVDVFDSATDYIKLMKTIFDFESIKKLLASPKFSFCFDGLHGVAGAYAKRMFVDELGASESSLLNCVPKEDFGGGHPDPNLTYAKELVERMGLGKSSSNVEPPEFGAAADGDADRNMVLGKRFFVTPSDSVAIIAANAVQSIPYFASGLKGVARSMPTSAALDVVAKNLNLKFFEVPTGWKFFGNLMDAGMCSVCGEESFGTGSDHIREKDGIWAVLAWLSIIAYKNKDNLGGDKLVSVEDIVLQHWATYGRHYYTRYDYENVDAEAAKELMANLVKMQSALSDVNKLIKEIQPDVAEVVSADEFEYKDPVDGSVSKHQGIRYLFGDGSRLVFRLSGTGSVGATIRIYIEQYEKDSSKTGRESSDALSPLVDVALKLSKIKEYTGRSAPTVIT | 10 | 3 | 0 | 0
NTGA 30: Phl p wild type sequence, Table 2 (protein, Phleum Pratense) MAGGGVEDVYGEDRATEEQFVTPWSFSVASGHSLLRDPRHNKGLAFSEAERDAHYLRGLLPPAIVSQEHQEKKIMHNLRQYTVPLQRYIAMMDLQERNERLFYKLLIDNVEELLPVVYTPVVGEACQKYGSIYRRPQGLYISLKDKGKVLEVLKNWPERSIQVIVVTDGERILGLGDLGCQGMGIPVGKLSLYTALGGVRPSACLPITIDVGTNNQTLLDDEYYIGLKQRRATGEEYHELLQEFMNAVKQNYGEKVLVQFEDFANHNAFDLLAKYSKSHLVFNDDIQGTASVVLAGLLAALKVIGGGLADQTYLFLGAGEAGTGIAELIALEMSKHTDLPLDDCRKKIWLVDSKGLLVESRKESLQHFKKPFAHEHEPLTTLLEAVQSLKPTVLIGTSGVGKTFTQEVVEAMASFNEKPVIFSLSNPTSHSECTAEEAYTWTKGTAVFASGSPFDPVEYEGKTYVPGQSNNAYVFPGFGLGVVISGAIRVHDDMLLAASEALAEQVSQENFDKGLIFPPFTNIRKISANIAAKVAAKAYDLGLASRLPRPDDLVKYAESCMYTPLYRSYR | 30 | 1 | 1 | 0
NTGA 32: Phl p wild type sequence, Table 2 (protein, Phleum Pratense) MAPIKIGINGFGRIGRLVARVALQCPDVELVAVNDPFITTDYMTYMFKYDTVHGQWKHHDVKVKDAKTLLFGEKEVAVFGCRNPEEIPWGAAGADYVVESTGVFTDKDKAAAHIKGGAKKVIISAPSKDAPMFVCGVNEKEYTSDITIVSNASCTTNCLAPLAKVINDRFGIVEGLMTTVHAMTATQKTVDGPSSKDWRGGRAASFNIIPSSTGAAKAVGKVLPVLNGKLTGMAFRVPTVDVSVVDLTVRLEKAATYEQIKAAIKEESEGNLKGILGYVDEDLVSTDFQGDSRSSIFDAKAGIALNDNFVKLVSWYDNEWGYSTRVVDLIRHIHATK | 32 | 4 | 4 | 0
NTGA 4: Phl p wild type sequence, Table 2 (protein, Phleum Pratense) YIKLMKTIFDFESIKKLLASPKFSFCFDGLHGVAGAYAKRMFVDELGASESSLLNCVPKEDFGGGHPDPNLTYAKELVERMGLGKSSSNVEPPEFGAAADGDADRNMVLGKRFFVTPSDSVAIIAANAVQSIPYFASGLKGVARSMPTSAALDVVAKNLNLKFFEVPTGWKFFGNLMDAGMCSVCGEESFGTGSDHIREKDGIWAVLAWLSIIAYKNKDNLGGDKLVSVEDIVLQHWATYGRHYYTRYDYENVDAEAAKELMANLVKMQSALSDVNKLIKEIQPDVAEVVSADEFEYKDPVDGSVSKHQGIRYLFGDGSRLVFRLSGTGSVGATIRIYIEQYEKDSSKTGRESSDALSPLVDVALKLSKIKEYTGRSAPTVIT | 4 | 4 | 3 | 0
NTGA 26: Phl p wild type sequence, Table 2 (protein, Phleum Pratense) GVFTDKDKAAAHMKGGAKKVVISAPSKDAPMFVVGVNEDKYTSDVNIVSNASCTTNCLAPLAKIINDNFGIVEGLMTTVHSITATQKTVDGPSSKDWRGGRAASFNIIPSSTGAAKAVGKVLPELNGKLTGMSFRVPTVDVSVVDLTVRIEKAASYEDIKKAIKAASEGNLKGIMGYVEEDLVSTDFIGDSRSSIFDAKAGIALNDNFVKLVSWYDNEWGY | 26 | 1 | 1 | 0
